Assay results published in patent US20100081621, “Crystal structure of the catalytic domain of the viral restriction factor APOBEC3G” (published 2010).

B1: 85-nt processivity ssDNA (ssDNA)
DNA: AAAGAGAAAGTGATACCCAAAGAGTAAAGTTAGATAGAGAGTGATACCCAAAGAGTAAAGTTAGTAAGATGTGTAAGTATGTTAA
modifications: [31 (FdT = fluorescein-dT, written as T)]

Experiments:
[1] = target: APOBEC3G D316R/D317R (Homo sapiens, UniProt Q9HC16 Q9HC16:1-384, D316R,D317R); assay: FP; higher binding than wt; 5 mM MgCl2, 37 C; settings: tags: Sf9, pAcG2T; label: internal fluorescein-dT
Experimental: Apo3G-DNA binding were monitored by changes in steady state fluorescence depolarization (rotational anisotropy). Reaction mixtures (70 μl), containing an F-labeled DNA ([…]) in buffer (50 mM HEPES, pH 7.3, 1 mM DTT and 5 mM MgCl₂) and varying concentration of 0 to 500 nM Apo3G, were incubated at 37° C. The sequence of the ssDNA is: tta gat gag tgt aa(FdT) gtg ata tat gtg tat. Rotational anisotropy was measured as described previously (Chelico et al., 2006). The fraction of DNA bound to protein was determined as described previously (Bertram et al., 2004).

[2] = target: APOBEC3G-CD2 (Homo sapiens, UniProt Q9HC16 Q9HC16:197-380); assay: about 2-fold decrease in processivity and polarity; settings: tags: GST removed by PreScission protease; label: internal fluorescein-dT
Excerpt: (§1) FIG. 1B is Apo3G processivity and 3′_{—}5′ deamination bias was characterized on an 85-nt internally F-labeled ssDNA with two CCC motifs 30-nt apart. Single deaminations of the 5′C and 3′C that are spaced by 30-nt on the ssDNA substrate are detected as the appearance of labeled 67- and 48-nt fragments, respectively; double deamination of both Cs on the same molecule results in 30-nt labeled fragment (5′C and 3′C). Substrate usage (%) is less than 15% to maintain single-hit kinetics. The ‘Processivity factor’ is defined as the ratio of the observed fraction of double deaminations (occurring at both 5′C and 3′C on the same molecule) to the predicted fraction of independent double deaminations (Chelico et al., 2006). […] The deamination bias is measured by the ratio of 5′C/3′C deaminations. Deamination patterns are shown using full length Apo3G (lane 2) and Apo3G-CD2 (lanes 3, 4). As a control, no Apo3G or Apo3G-CD2 enzyme was added in lane 1.
(§2) Apo3G (0.024-μM) was allowed to react with 500 nM FdT incorporated ssDNA for […] and subsequently treated with UDG and resolved on 16% UREA PAGE for analysis as described previously¹⁰. Specific activity, measured as fmoles substrate deaminated per pg enzyme per minute, was calculated from the percent deamination of an ssDNA substrate over a range of enzyme concentrations. […]

[3] = target: APOBEC3G full-length (E. coli) (Homo sapiens, UniProt Q9HC16 Q9HC16:1-384); assay: processive deamination with bias to the 5' CCC; settings: tags: GST, pGEX-6P1, E. coli; label: internal fluorescein-dT
Excerpt: as §1, §2

Chain of APOBEC3G D316R/D317R (Q9HC16 whole entry D316R/D317R, one chain of several): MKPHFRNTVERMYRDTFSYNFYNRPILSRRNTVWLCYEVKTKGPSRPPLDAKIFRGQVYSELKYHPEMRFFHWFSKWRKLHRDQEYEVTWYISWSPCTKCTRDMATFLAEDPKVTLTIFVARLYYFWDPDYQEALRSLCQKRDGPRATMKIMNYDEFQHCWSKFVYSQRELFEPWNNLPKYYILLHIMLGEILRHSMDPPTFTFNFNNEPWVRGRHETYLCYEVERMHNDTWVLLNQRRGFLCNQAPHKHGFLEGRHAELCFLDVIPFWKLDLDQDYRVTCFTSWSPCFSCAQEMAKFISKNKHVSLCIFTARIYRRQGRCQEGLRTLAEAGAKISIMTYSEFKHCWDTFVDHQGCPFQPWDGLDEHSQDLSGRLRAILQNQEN
Chain of APOBEC3G-CD2 (Q9HC16 197-380, one chain of several): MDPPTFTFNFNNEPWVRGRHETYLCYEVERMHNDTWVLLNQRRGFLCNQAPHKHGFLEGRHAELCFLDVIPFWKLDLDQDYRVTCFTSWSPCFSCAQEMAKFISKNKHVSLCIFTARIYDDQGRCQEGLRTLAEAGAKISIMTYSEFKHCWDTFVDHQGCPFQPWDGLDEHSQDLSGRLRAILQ
Chain of APOBEC3G full-length (E. coli) (Q9HC16 whole entry, one chain of several): as the sequence (Q9HC16 whole entry D316R/D317R, one chain of several) above, with R316D, R317D counted along it

Binder	binding signal [1]	binding result [2]	binding result [3]
TTAGATGAGTGTAATGTGATATATGTGTAT (ssDNA, [15 (fluorescein-dT)]) [anisotropy ssDNA]	2 fold of wt		
B1		binds	binds
